From the supplement of paper PMC9112550, “Optimization of the antimicrobial peptide Bac7 by deep mutational scanning” (BMC Biology, 2022)

System: Escherichia coli TOP10
Test: shrunken log2 fold change of peptide-encoding DNA abundance (4.5 h post-induction vs induction); higher = less antimicrobial activity (less host growth inhibition)
Conditions: time post-induction: 4.5 h; library: site-saturation at positions 5, 18, 19, 20
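Note: peptides expressed intracellularly from a pBAD plasmid library in pooled LB shake-flask culture, induced with 0.3% L-arabinose, DNA abundance read by NGS, three biological replicates, DESeq2 with apeglm shrinkage.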

| Sequence | shrunken log2 fold change |
| --- | --- |
| RRIRDRPPRLPRPRPRPFHDPRP | -0.157 |
| RRIRMRPPRLPRPRPRPFHRPRP | -0.114 |
| RRIRKRPPRLPRPRPRPMFGPRP | 0.112 |
| RRIRYRPPRLPRPRPRPTRDPRP | -0.0311 |
| RRIRARPPRLPRPRPRPHPMPRP | -0.026 |
| RRIRGRPPRLPRPRPRPEVAPRP | 1.88 |
| RRIRKRPPRLPRPRPRPCEHPRP | 0.015 |
| RRIRFRPPRLPRPRPRPMCSPRP | -0.687 |
| RRIRFRPPRLPRPRPRPFIYPRP | -0.714 |
| RRIRFRPPRLPRPRPRPNLSPRP | -0.259 |
| RRIRWRPPRLPRPRPRPWGFPRP | 0.27 |
| RRIRIRPPRLPRPRPRPMKQPRP | -0.0367 |
| RRIRCRPPRLPRPRPRPGQIPRP | 0.165 |
| RRIRVRPPRLPRPRPRPFNIPRP | -0.425 |
| RRIRKRPPRLPRPRPRPRAYPRP | -0.382 |
| RRIRGRPPRLPRPRPRPTKLPRP | 0.38 |
| RRIRCRPPRLPRPRPRPYGCPRP | -0.00123 |
| RRIRIRPPRLPRPRPRPRYFPRP | -0.769 |
| RRIRTRPPRLPRPRPRPTLGPRP | 0.0554 |
| RRIRSRPPRLPRPRPRPWWKPRP | -0.0475 |

| Sequence | shrunken log2 fold change |
| --- | --- |
| RRIRKRPPRLPRPRPRPGTTPRP | 0.157 |
| RRIRERPPRLPRPRPRPFGFPRP | -0.335 |
| RRIRSRPPRLPRPRPRPYLWPRP | -0.0115 |
| RRIRLRPPRLPRPRPRPPRGPRP | 0.637 |
| RRIRARPPRLPRPRPRPIPLPRP | 0.0456 |
| RRIRDRPPRLPRPRPRPKEQPRP | 0.0816 |
| RRIRARPPRLPRPRPRPNSKPRP | -0.155 |
| RRIRQRPPRLPRPRPRPSDKPRP | -0.341 |
| RRIRGRPPRLPRPRPRPCGSPRP | 0.107 |
| RRIRVRPPRLPRPRPRPSWPPRP | 0.493 |
| RRIRPRPPRLPRPRPRPDIWPRP | 0.144 |
| RRIRDRPPRLPRPRPRPKIDPRP | 0.0277 |
| RRIRRRPPRLPRPRPRPSSTPRP | 0.197 |
| RRIRYRPPRLPRPRPRPCNKPRP | -0.0167 |
| RRIRVRPPRLPRPRPRPTAQPRP | -0.113 |
| RRIRMRPPRLPRPRPRPGAVPRP | 0.873 |
| RRIRFRPPRLPRPRPRPQHIPRP | -0.51 |
| RRIRKRPPRLPRPRPRPECAPRP | 0.339 |
| RRIRPRPPRLPRPRPRPSPTPRP | 0.22 |
| RRIRVRPPRLPRPRPRPVIRPRP | -0.375 |

| Sequence | shrunken log2 fold change |
| --- | --- |
| RRIRSRPPRLPRPRPRPPSFPRP | 0.0731 |
| RRIRMRPPRLPRPRPRPHGRPRP | -0.0383 |
| RRIRHRPPRLPRPRPRPMMWPRP | -0.0542 |
| RRIRKRPPRLPRPRPRPDAYPRP | 1.82 |
| RRIRGRPPRLPRPRPRPMNVPRP | -0.176 |
| RRIRQRPPRLPRPRPRPWGQPRP | 0.000222 |
| RRIRQRPPRLPRPRPRPTPQPRP | 0.89 |
| RRIRERPPRLPRPRPRPQKYPRP | -1.15 |
| RRIRDRPPRLPRPRPRPFLEPRP | -0.192 |
| RRIRWRPPRLPRPRPRPPQAPRP | 0.733 |
| RRIRGRPPRLPRPRPRPGFTPRP | 0.11 |
| RRIRDRPPRLPRPRPRPVVWPRP | 0.902 |
| RRIRCRPPRLPRPRPRPTPYPRP | 0.00933 |
| RRIRWRPPRLPRPRPRPFETPRP | 0.0441 |
| RRIRRRPPRLPRPRPRPETRPRP | 0.644 |
| RRIRYRPPRLPRPRPRPDIMPRP | -1.15 |
| RRIRARPPRLPRPRPRPKNGPRP | 0.246 |
| RRIRERPPRLPRPRPRPTGSPRP | -0.211 |
| RRIRFRPPRLPRPRPRPLQHPRP | -0.134 |
| RRIRARPPRLPRPRPRPDAIPRP | 1.03 |
